Data: paper PMC11446282
Where two headings read alike, the source gives them in different places.

B1: PME1 wt (protein, UniProt Q9Y570 2-386, looked up)
Protein phosphatase …: SALEKSMHLGRLPSRPPLPGSGGSQSGAKMRMGPGRKRDFSPVPWSQYFESMEDVEVENETGKDTFRVYKSGSEGPVLLLLHGGGHSALSWAVFTAAIISRVQCRIVALDLRSHGETKVKNPEDLSAETMAKDVGNVVEAMYGDLPPPIMLIGHSMGGAIAVHTASSNLVPSLLGLCMIDVVEGTAMDALNSMQNFLRGRPKTFKSLENAIEWSVKSGQIRNLESARVSMVGQVKQCEGITSPEGSKSIVEGIIEEEEEDEEGSESISKRKKEDDMETKKDHPYTWRIELAKTEKYWDGWFRGLSNLFLSCPIPKLLLLAGVDRLDKDLTIGQMQGKFQMQVLPQCGHAVHEDAPDKVAEAVATFLIRHRFAEPIGGFQCVFPGC
B2: PDE8B_HUMAN (protein, UniProt O95263 1-885, looked up)
High affinity cAMP-specific …: MGCAPSIHVSQSGVIYCRDSDESSSPRQTTSVSQGPAAPLPGLFVQTDAADAIPPSRASGPPSVARVRRARTELGSGSSAGSAAPAATTSRGRRRHCCSSAEAETQTCYTSVKQVSSAEVRIGPMRLTQDPIQVLLIFAKEDSQSDGFWWACDRAGYRCNIARTPESALECFLDKHHEIIVIDHRQTQNFDAEAVCRSIRATNPSEHTVILAVVSRVSDDHEEASVLPLLHAGFNRRFMENSSIIACYNELIQIEHGEVRSQFKLRACNSVFTALDHCHEAIEITSDDHVIQYVNPAFERMMGYHKGELLGKELADLPKSDKNRADLLDTINTCIKKGKEWQGVYYARRKSGDSIQQHVKITPVIGQGGKIRHFVSLKKLCCTTDNNKQIHKIHRDSGDNSQTEPHSFRYKNRRKESIDVKSISSRGSDAPSLQNRRYPSMARIHSMTIEAPITKVINIINAAQENSPVTVAEALDRVLEILRTTELYSPQLGTKDEDPHTSDLVGGLMTDGLRRLSGNEYVFTKNVHQSHSHLAMPITINDVPPCISQLLDNEESWDFNIFELEAITHKRPLVYLGLKVFSRFGVCEFLNCSETTLRAWFQVIEANYHSSNAYHNSTHAADVLHATAFFLGKERVKGSLDQLDEVAALIAATVHDVDHPGRTNSFLCNAGSELAVLYNDTAVLESHHTALAFQLTVKDTKCNIFKNIDRNHYRTLRQAIIDMVLATEMTKHFEHVNKFVNSINKPMAAEIEGSDCECNPAGKNFPENQILIKRMMIKCADVANPCRPLDLCIEWAGRISEEYFAQTDEEKRQGLPVVMPVFDRNTCSIPKSQISFIDYFITDMFDAWDAFAHLPALMQHLADNYKHWKTLDDLKCKSLRLPSDS
B3: OFD1_HUMAN (protein, UniProt O75665 1-1012, looked up)
Centriole and centriolar …: MMAQSNMFTVADVLSQDELRKKLYQTFKDRGILDTLKTQLRNQLIHELMHPVLSGELQPRSISVEGSSLLIGASNSLVADHLQRCGYEYSLSVFFPESGLAKEKVFTMQDLLQLIKINPTSSLYKSLVSGSDKENQKGFLMHFLKELAEYHQAKESCNMETQTSSTFNRDSLAEKLQLIDDQFADAYPQRIKFESLEIKLNEYKREIEEQLRAEMCQKLKFFKDTEIAKIKMEAKKKYEKELTMFQNDFEKACQAKSEALVLREKSTLERIHKHQEIETKEIYAQRQLLLKDMDLLRGREAELKQRVEAFELNQKLQEEKHKSITEALRRQEQNIKSFEETYDRKLKNELLKYQLELKDDYIIRTNRLIEDERKNKEKAVHLQEELIAINSKKEELNQSVNRVKELELELESVKAQSLAITKQNHMLNEKVKEMSDYSLLKEEKLELLAQNKLLKQQLEESRNENLRLLNRLAQPAPELAVFQKELRKAEKAIVVEHEEFESCRQALHKQLQDEIEHSAQLKAQILGYKASVKSLTTQVADLKLQLKQTQTALENEVYCNPKQSVIDRSVNGLINGNVVPCNGEISGDFLNNPFKQENVLARMVASRITNYPTAWVEGSSPDSDLEFVANTKARVKELQQEAERLEKAFRSYHRRVIKNSAKSPLAAKSPPSLHLLEAFKNITSSSPERHIFGEDRVVSEQPQVGTLEERNDVVEALTGSAASRLRGGTSSRRLSSTPLPKAKRSLESEMYLEGLGRSHIASPSPCPDRMPLPSPTESRHSLSIPPVSSPPEQKVGLYRRQTELQDKSEFSDVDKLAFKDNEEFESSFESAGNMPRQLEMGGLSPAGDMSHVDAAAAAVPLSYQHPSVDQKQIEEQKEEEKIREQQVKERRQREERRQSNLQEVLERERRELEKLYQERKMIEESLKIKIKKELEMENELEMSNQEIKDKSAHSENPLEKYMKIIQQEQDQESADKSSKKMVQEGSLVDTLQSSDKVESLTGFSHEELDDSW
B4: BAG2_HUMAN (protein, UniProt O95816 2-211, looked up)
BAG family molecular …: AQAKINAKANEGRFCRSSSMADRSSRLLESLDQLELRVEALREAATAVEQEKEILLEMIHSIQNSQDMRQISDGEREELNLTANRLMGRTLTVEVSVETIRNPQQQESLKHATRIIDEVVNKFLDDLGNAKSHLMSLYSACSSEVPHGPVDQKFQSIVIGCALEDQKKIKRRLETLLRNIENSDKAIKLLEHSKGAGSKTLQQNAESRFN

Key:
PP2A-B55 isoforms = assay type: binding, human; conditions: MS, n = 4; for log2_ratio WT_M: YFP-PME1 wild-type versus mutant IP; for log2_ratio WT_C: wild-type versus control IP
Method: (§1) Standard cloning techniques were used throughout. Point mutations were introduced by whole plasmid polymerase chain reaction (PCR). All constructs were fully sequenced. Synthetic DNA was purchased from GeneArt, Life Technologies and cloned into pcDNA5/FRT/TO (Invitrogen) expression vector containing YFP, resulting in the indicated YFP fusion proteins. These constructs were transiently transfected into HeLa cells 24 hours before harvesting cells. Cells were lysed in lysis buffer [50 mM tris-HCl (pH 7.5), 50 mM NaCl, 1 mM EDTA, 1 mM […], and 0.1% NP-40]. Complexes were immunoprecipitated at 4°C in lysis buffer with green fluorescent protein (GFP)–Trap (ChromoTek) and washed in lysis buffer. Precipitated protein complexes were washed three times in lysis buffer, eluted in 2× SDS sample buffer, and subjected to Western blotting or MS as indicated.
Pull-downs were analyzed on a Q-Exactive Plus quadrupole or Fusion Orbitrap Lumos mass spectrometer (Thermo Fisher Scientific) equipped with Easy-nLC 1000 or […] (Thermo Fisher Scientific) and nanospray source (Thermo Fisher Scientific). Peptides were resuspended in 5% methanol/1% formic acid and loaded onto a trap column [1 cm in length, 100 μm in inner diameter, ReproSil, C18 AQ 5-μm 120-Å pore (Dr. Maisch, Ammerbuch, Germany)] vented to waste via a micro-tee and eluted across a fritless analytical resolving column (35 cm in length, 100 μm in inner diameter, ReproSil, C18 AQ 3-μm 120-Å pore) pulled in-house (Sutter P-2000, Sutter Instruments, San Francisco, CA) with a 45-min gradient of 5 to 30% liquid chromatography–MS (LC-MS) buffer B (LC-MS buffer A: 0.0625% formic acid and 3% acetonitrile (ACN); LC-MS buffer B: 0.0625% formic acid, 95% ACN Q-Exactive Plus quadrupole or 0.0625% formic acid and 80% ACN Fusion Orbitrap Lumos mass).
(§2) Static modifications included carbamidomethylcysteine, and variable modifications included oxidized methionine and STY phosphorylation. Searches were filtered using orthogonal measures including mass measurement accuracy (±3 parts per million), Xcorr for charges from +2 to +4, and dCn targeting a <1% false discovery rate at the peptide level. Quantification of LC-MS/MS spectra was performed using MassChroQ ([57]) and the iBAQ method ([58]). All data were analyzed using R 4.3.0. Missing values were imputed from a normal distribution. To be included in further analysis, proteins had to be identified with more than 1 total peptide and quantified in two or more replicates of each sample. In each dataset, the abundance of the protein of interest was normalized to be equal across all samples. Statistical analyses were done using a two-tailed Student’s t test.

B55α interactors = experiment: MS analysis of B55α WT, V228A, I284A, S287A and D340A immunopurifications; assay type: binding, human; conditions: log2 ratio of interactor abundance, 4 replicates each, normalised to bait B55α; for log2_ratio_D340_WT: B55α D340A vs WT immunopurification; for log2_ratio I284_WT: B55α I284A vs WT immunopurification; for log2_ratio S287_WT: B55α S287A vs WT immunopurification; for log2_ratio V228_WT: B55α V228A vs WT immunopurification
Method: as §1
Pull-downs were analyzed on a Q-Exactive Plus quadrupole or Fusion Orbitrap Lumos mass spectrometer (Thermo Fisher Scientific) equipped with Easy-nLC 1000 or […] (Thermo Fisher Scientific) and nanospray source (Thermo Fisher Scientific).
as §2, with “To be included in further analysis, proteins had to be identified with more than 1 total peptide and quantified in two or more replicates of each sample.” left out

[1] = prey 2ABA_HUMAN (PPP2R2A, B55 alpha)
[2] = prey 2ABB_HUMAN (PPP2R2B, B55 beta)
[3] = prey 2ABD_HUMAN (PPP2R2D, B55 delta)
[4] = prey 2ABG_HUMAN (PPP2R2C, B55 gamma)

Molecule | log2_ratio WT_M (PP2A-B55 isoforms; prey 2AAA_HUMAN (PPP2R1A)) | log2_ratio WT_C (PP2A-B55 isoforms; prey 2AAA_HUMAN (PPP2R1A)) | log2_ratio WT_M (PP2A-B55 isoforms; prey 2AAB_HUMAN (PPP2R1B)) | log2_ratio WT_C (PP2A-B55 isoforms; prey 2AAB_HUMAN (PPP2R1B)) | log2_ratio WT_M (PP2A-B55 isoforms; [1]) | log2_ratio WT_C (PP2A-B55 isoforms; [1]) | log2_ratio WT_M (PP2A-B55 isoforms; [2]) | log2_ratio WT_C (PP2A-B55 isoforms; [2]) | log2_ratio WT_M (PP2A-B55 isoforms; [3]) | log2_ratio WT_C (PP2A-B55 isoforms; [3]) | log2_ratio WT_M (PP2A-B55 isoforms; [4]) | log2_ratio WT_C (PP2A-B55 isoforms; [4]) | log2_ratio WT_M (PP2A-B55 isoforms; prey PP2AA_HUMAN (PPP2CA)) | log2_ratio WT_C (PP2A-B55 isoforms; prey PP2AA_HUMAN (PPP2CA)) | log2_ratio WT_M (PP2A-B55 isoforms; prey PP2AB_HUMAN (PPP2CB)) | log2_ratio WT_C (PP2A-B55 isoforms; prey PP2AB_HUMAN (PPP2CB)) | log2_ratio_D340_WT (B55α interactors) | log2_ratio I284_WT (B55α interactors) | log2_ratio S287_WT (B55α interactors) | log2_ratio V228_WT (B55α interactors)
B1 | 1.05 | 8.03 | 1.40 | 6.19 | 8.62 | 8.40 | 4.68 | 4.02 | 5.74 | 6.24 | 6.08 | 5.83 | 0.66 | 9.04 | 0.69 | 8.00 |  |  |  | 
B2 |  |  |  |  |  |  |  |  |  |  |  |  |  |  |  |  | 3.81 | 0.83 | 4.46 | 5.00
B3 |  |  |  |  |  |  |  |  |  |  |  |  |  |  |  |  | 2.04 | 1.52 | 0.73 | -2.22
B4 |  |  |  |  |  |  |  |  |  |  |  |  |  |  |  |  | -0.69 | -0.54 | 0.19 | -0.43
